Measured values published in PMC5183593, “Conformational Rigidity within Plasticity Promotes Differential Target Recognition of Nerve Growth Factor” (Frontiers in Molecular Biosciences, 2016).

Biological target: the molecule itself
Assay: NMR relaxation (T1, T2, heteronuclear NOE); 15N relaxation at 600 MHz and 30°C; correlation time 14.8 ns

B1: recombinant mouse Nerve Growth Factor (mNGF) (natural protein, UniProt P01139 122-241, looked up)
chain: SSTHPVFHMGEFSVCDSVSVWVGDKTTATDIKGKEVTVLAEVNINNSVFRQYFFETKCRASNPVESGCRGIDSKHWNSYCTTTHTFVKALTTDEKQAAWRFIRIDTACVCVLSRKATRRG
modifications: 15N or 15N-13C isotope labeled
notes: Nerve Growth Factor (beta-NGF), mouse, mature form cut from the precursor proNGF; 118 amino acids per protomer (S1 to residue 118), non-covalent homodimer of 26 kDa; numbers count on: the mature protein; Expression host and the details of the construct are in the Supplementary Information and in Paoletti et al., 2011; also called mouse NGF
  stoichiometry N: 2
